Consider one substance from patent CN102127167A.

Values joined by “and” are separate entries in the source; they are usually repeats but may differ in a detail not shown here. Equal entries are not always repeated.

The Kd is the concentration at which binding is half-saturated.

The target in assay [1] is 人TNFα (human) (UniProt P01375). Put plainly: SPR (Biacore), TNFa coupled to the chip, antibody as analyte. Background: Surface plasmon resonance follows binding to a sensor surface in real time, without labels.
In assay [2] the target is 人TNFα (human) (UniProt P01375). Put plainly: cell-based or functional assay.

Sequence of UniProt P01375 (P01375 77-233 limits assumed): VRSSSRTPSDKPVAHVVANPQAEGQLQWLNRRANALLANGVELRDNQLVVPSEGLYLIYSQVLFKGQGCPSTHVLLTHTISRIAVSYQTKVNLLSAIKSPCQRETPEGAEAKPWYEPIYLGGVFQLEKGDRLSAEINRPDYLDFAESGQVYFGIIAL

In turn, humira (antibody) showed a Kd in the assay with 人TNFα (human) [1] of 2.01 nM. For the same substance, in the assay with 人TNFα (human) [2], the IC50(pM), L929细胞保护试验 was 1.37 pM and 2.52 pM and 2.32 pM; the IC50(pM), L929细胞保护试验, 平均值 came to 2.42 pM.
